Measured values published in US20200147235A1 (AbbVie / Abbott, published 2020).

Columns and labels:
[1] = target: T1, Human CD98 ECD with C-terminal His-tag (human, UniProt P08195 105-529); assay: SPR (Biacore), antibody captured on anti-Fc surface, CD98 ECD in solution
T1 construct: The entry includes the linker and the polyhistidine tag; also called huCD98 ECD
T1 sequence: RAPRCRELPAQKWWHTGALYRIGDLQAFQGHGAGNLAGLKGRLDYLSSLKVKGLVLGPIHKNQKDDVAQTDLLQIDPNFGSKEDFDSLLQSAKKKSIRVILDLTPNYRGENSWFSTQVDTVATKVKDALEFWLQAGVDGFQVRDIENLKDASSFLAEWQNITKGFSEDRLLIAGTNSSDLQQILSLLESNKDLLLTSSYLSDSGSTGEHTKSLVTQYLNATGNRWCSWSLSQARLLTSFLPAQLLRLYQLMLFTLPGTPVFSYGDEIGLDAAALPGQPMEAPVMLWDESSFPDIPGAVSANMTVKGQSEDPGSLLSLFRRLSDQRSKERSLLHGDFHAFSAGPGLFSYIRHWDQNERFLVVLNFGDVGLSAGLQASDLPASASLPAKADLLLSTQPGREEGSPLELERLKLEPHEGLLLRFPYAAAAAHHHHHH
Method: (§1) The binding kinetics of these purified mouse and rat monoclonal anti-CD98 antibodies for purified recombinant CD98 protein (extracellular domain. ECD) were determined by surface plasmon resonance-based measurements made on Biacore T100/T200 instruments (GE Healthcare, Piscataway, N.J.) at 25° C. using an anti-Fc capture assay approach. Binding kinetic measurements were made in the assay buffer HBS-EP+: 10 mM Hepes, pH 7.4, 150 mM NaCl, 3 mM EDTA, 0.05% Tween 20). For example, approximately 8000 RU of anti-Fc (species specific) polyclonal antibody (Thermo Fisher Scientific Inc. Rockford, Ill.) diluted in 10 mM sodium acetate (pH 4.5) was directly immobilized across a CM5 research grade biosensor chip using a standard amine coupling kit according to manufacturer's instructions and procedures at 25 μg/ml. Unreacted moieties on the biosensor surface were blocked with ethanolamine. The test antibody to be captured as a ligand was diluted in running buffer to ˜0.5 μg/mL and injected over anti-Fc surface at a flow rate of 10 μL/min, CD98 binding and dissociation were observed under a continuous flow rate of 80 μL/min. Human and cynomolgus monkey CD98 ECDs, both with a C-terminal His-tag, are used for this study (Table 3). After each cycle the anti-Fc capture surface was regenerated using 10 mM Glycine-HCl, pH 1.5. During the assay, all measurements were referenced against the capture surface alone (i.e., with no captured test antibody) and buffer-only injections (no antigen) were used for double referencing. For kinetic analysis, rate equations derived from the 1:1 Langmuir binding model were fitted simultaneously, globally and with mass transfer term included to multiple referenced antigen binding curves using Biacore T100T200 Evaluation software.
(§2) The binding kinetics of the recombinant anti-CD98 chimeric antibodies for purified recombinant CD98 protein (extracellular domain, ECD) were determined by surface plasmon resonance-based measurements, as described in the Example 4.

[2] = target: T2, Cynomolgus monkey CD98 ECD with C-terminal His-tag (cynomolgus monkey, UniProt P08195 105-529 (human entry)); assay: as above
T2 construct: The entry includes the linker and the polyhistidine tag; also called cyCD98 ECD
T2 chain: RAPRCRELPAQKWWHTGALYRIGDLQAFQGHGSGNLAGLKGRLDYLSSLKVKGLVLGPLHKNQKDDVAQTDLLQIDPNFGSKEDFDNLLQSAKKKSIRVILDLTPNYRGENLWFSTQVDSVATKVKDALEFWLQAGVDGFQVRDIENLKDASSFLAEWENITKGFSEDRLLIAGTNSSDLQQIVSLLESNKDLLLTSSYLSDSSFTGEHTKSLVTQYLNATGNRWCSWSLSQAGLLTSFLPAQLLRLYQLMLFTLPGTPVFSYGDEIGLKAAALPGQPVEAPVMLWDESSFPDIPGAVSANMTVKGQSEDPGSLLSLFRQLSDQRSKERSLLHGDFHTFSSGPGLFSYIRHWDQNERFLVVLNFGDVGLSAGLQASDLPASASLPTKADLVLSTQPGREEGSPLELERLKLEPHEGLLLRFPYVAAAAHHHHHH
Method: as §1, §2

[3] = target: T3, Cynomolgus monkey CD98 ECD with C-terminal His-tag (SEQ ID NO: 127) (cynomolgus monkey, UniProt P08195 105-529 (human entry)); assay: SPR (Biacore), recombinant CD98 ECD
T3 construct: The entry includes the linker and the polyhistidine tag; also called cyCD98 ECD
T3 chain: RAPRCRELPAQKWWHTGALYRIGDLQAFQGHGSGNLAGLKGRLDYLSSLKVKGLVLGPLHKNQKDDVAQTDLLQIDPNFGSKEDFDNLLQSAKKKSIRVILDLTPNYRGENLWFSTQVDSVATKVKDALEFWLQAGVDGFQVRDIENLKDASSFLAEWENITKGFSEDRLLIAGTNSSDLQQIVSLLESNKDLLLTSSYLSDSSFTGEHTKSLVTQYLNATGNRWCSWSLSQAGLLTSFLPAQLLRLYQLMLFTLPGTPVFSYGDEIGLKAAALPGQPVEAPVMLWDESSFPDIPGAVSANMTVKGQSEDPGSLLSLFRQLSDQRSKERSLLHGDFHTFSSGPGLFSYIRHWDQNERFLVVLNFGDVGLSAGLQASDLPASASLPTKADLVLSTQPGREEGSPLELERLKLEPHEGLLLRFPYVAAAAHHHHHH

[4] = target: T4, Human CD98 ECD with N-terminal His-tag (human, UniProt P08195 105-529); assay: SPR (Biacore), recombinant CD98 ECD
T4 construct: The entry includes the linker and the polyhistidine tag; also called huCD98 ECD
T4 sequence: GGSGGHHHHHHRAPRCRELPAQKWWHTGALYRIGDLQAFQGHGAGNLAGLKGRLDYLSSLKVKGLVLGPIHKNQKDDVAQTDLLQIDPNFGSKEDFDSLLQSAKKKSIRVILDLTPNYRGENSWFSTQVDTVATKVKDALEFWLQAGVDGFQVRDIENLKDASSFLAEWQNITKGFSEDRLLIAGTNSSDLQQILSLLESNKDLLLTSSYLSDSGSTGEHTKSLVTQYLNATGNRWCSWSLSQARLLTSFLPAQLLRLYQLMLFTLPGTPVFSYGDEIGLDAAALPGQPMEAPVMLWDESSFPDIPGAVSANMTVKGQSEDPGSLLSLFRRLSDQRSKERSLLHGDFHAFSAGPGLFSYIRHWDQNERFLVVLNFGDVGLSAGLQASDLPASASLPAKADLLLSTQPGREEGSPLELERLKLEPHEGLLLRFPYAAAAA

B1: huAb3v1 (antibody, V domains shown)
VH: EVQLVESGGGLVQPGRSLRLSCTTSGFTFIDYYMSWVRQAPGKGLEWLGFIRNKANRYTTEYSASVKGRFTISRDNSKSILYLQMNSLKTEDTAVYYCTRDRPAWFVYWGQGTLVTVSS
VL: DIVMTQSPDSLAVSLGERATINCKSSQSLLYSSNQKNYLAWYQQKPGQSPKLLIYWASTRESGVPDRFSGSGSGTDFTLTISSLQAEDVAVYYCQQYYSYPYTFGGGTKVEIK
notes: Humanized, further engineered clone of chAb3, converted to IgG and expressed as a full-length antibody
Kd [1]: 13 nM
koff [1]: 0.0023 s⁻¹
kon [1]: 180000 M⁻¹ s⁻¹
Kd [2]: 23 nM
koff [2]: 0.00092 s⁻¹
kon [2]: 40000 M⁻¹ s⁻¹

B2: huAb3v2 (antibody, V domains shown)
VH: EVQLVESGGGLVQPGRSLRLSCTTSGFTFIDYYMSWVRQAPGKGLEWLGFIRNKAYGYTTEYSASVKGRFTISRDNSKSILYLQMNSLKTEDTAVYYCTRDRPAWFVYWGQGTLVTVSS
VL: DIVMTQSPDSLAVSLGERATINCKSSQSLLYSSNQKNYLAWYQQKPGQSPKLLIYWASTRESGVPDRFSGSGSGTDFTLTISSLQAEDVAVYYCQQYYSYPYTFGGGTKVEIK
notes: as for B1
Kd [1]: 4.9 nM
koff [1]: 0.0013 s⁻¹
kon [1]: 260000 M⁻¹ s⁻¹
Kd [2]: 17 nM
koff [2]: 0.00049 s⁻¹
kon [2]: 29000 M⁻¹ s⁻¹

B3: huAb15v2 (antibody, V domains shown)
VH: EVQLVESGGGVVQPGRSLRLSCAASGFTFSDYTMAWVRQAPGKGLEWVATIIYSGRGTYYRDAVKGRFTISRDNSKSTLYLQMNSLRAEDTAVYYCARQSDDTYYYWGYFDYWGQGTMVTVSS
VL: DIVMTQSPDSLAVSLGERATINCKSSQSLLFSGNQKNYLAWYQQKPGQSPKLLIYWASTRQSGVPDRFSGSGSGTDFTLTIRSLQAEDVAIYYCQQYYDVPYTFGQGTKLEIK
notes: Humanized, further engineered clone of chAb15, converted to IgG and expressed as a full-length antibody
Kd [1]: 1.1 nM
koff [1]: 4.6e-05 s⁻¹
kon [1]: 42000 M⁻¹ s⁻¹
Kd [2]: 2.3 nM
koff [2]: 4.8e-05 s⁻¹
kon [2]: 21000 M⁻¹ s⁻¹

B4: huAb15v1 (antibody, V domains shown)
VH: EVQLVESGGGVVQPGRSLRLSCAASGFTFSDYTMAWVRQAPGKGLEWVATIIYSGRGTYYRDAVKGRFTISRDNSKSTLYLQMNSLRAEDTAVYYCARQSDHTYYYWGYFDYWGQGTMVTVSS
VL: DIVMTQSPDSLAVSLGERATINCKSSQSLLFSGNQKNYLAWYQQKPGQSPKLLIYWASTRQSGVPDRFSGSGSGTDFTLTIRSLQAEDVAIYYCQQYYDVPYTFGQGTKLEIK
notes: as for B3
Kd [1]: 0.43 nM
koff [1]: 2.3e-05 s⁻¹
kon [1]: 53000 M⁻¹ s⁻¹
Kd [2]: 1 nM
koff [2]: 2.6e-05 s⁻¹
kon [2]: 26000 M⁻¹ s⁻¹

B5: huAb15v3 (antibody, V domains shown)
VH: EVQLVESGGGVVQPGRSLRLSCAASGFTFSDYTMAWVRQAPGKGLEWVATIIYSGRGTYYRDAVKGRFTISRDNSKSTLYLQMNSLRAEDTAVYYCARQSDDTYYYWGYFDYWGQGTMVTVSS
VL: DIVMTQSPDSLAVSLGERATINCKSSQSLLFSGNQKNYLAWYQQKPGQSPKLLIYWASTRQSGVPDRFSGSGSGTDFTLTIRSLQAEDVAIYYCQQYYGSPYTFGQGTKLEIK
notes: as for B3
Kd [1]: 2 nM
koff [1]: 8.5e-05 s⁻¹
kon [1]: 44000 M⁻¹ s⁻¹
Kd [2]: 7.6 nM
koff [2]: 0.00014 s⁻¹
kon [2]: 18000 M⁻¹ s⁻¹

B6: huAb15v4 (antibody, V domains shown)
VH: EVQLVESGGGVVQPGRSLRLSCAASGFTFSDYTMAWVRQAPGKGLEWVATIIYTGRGTYYRDAVKGRFTISRDNSKSTLYLQMNSLRAEDTAVYYCARQSDDTYYYWGYFDYWGQGTMVTVSS
VL: DIVMTQSPDSLAVSLGERATINCKSSQSLLFSGNQKNYLAWYQQKPGQSPKLLIYWASTRQSGVPDRFSGSGSGTDFTLTIRSLQAEDVAIYYCQQYYDVPYTFGQGTKLEIK
notes: as for B3
Kd [1]: 0.81 nM
koff [1]: 2.8e-05 s⁻¹
kon [1]: 35000 M⁻¹ s⁻¹
Kd [2]: 2.6 nM
koff [2]: 5e-05 s⁻¹
kon [2]: 20000 M⁻¹ s⁻¹

B7: huAb15v5 (antibody, V domains shown)
VH: EVQLVESGGGVVQPGRSLRLSCAASGFTFSDYTMAWVRQAPGKGLEWVATIIYTGRGTYYRDAVKGRFTISRDNSKSTLYLQMNSLRAEDTAVYYCARQSDDTYYYWGYFDYWGQGTMVTVSS
VL: DIVMTQSPDSLAVSLGERATINCKSSQSLLFSGNQKNYLAWYQQKPGQSPKLLIYWASTRQSGVPDRFSGSGSGTDFTLTIRSLQAEDVAIYYCQQYYSSPYTFGQGTKLEIK
notes: as for B3
Kd [1]: 3.1 nM
koff [1]: 0.00013 s⁻¹
kon [1]: 41000 M⁻¹ s⁻¹
Kd [2]: 11 nM
koff [2]: 0.00018 s⁻¹
kon [2]: 17000 M⁻¹ s⁻¹

B8: huAb15v6 (antibody, V domains shown)
VH: EVQLVESGGGVVQPGRSLRLSCAASGFTFSDYTMAWVRQAPGKGLEWVATIIYDARGTYYRDAVKGRFTISRDNSKSTLYLQMNSLRAEDTAVYYCARQSDDTYYYWGYFDYWGQGTMVTVSS
VL: DIVMTQSPDSLAVSLGERATINCKSSQSLLFSGNQKNYLAWYQQKPGQSPKLLIYWASTRQSGVPDRFSGSGSGTDFTLTIRSLQAEDVAIYYCQQYYSSPYTFGQGTKLEIK
notes: as for B3
Kd [1]: 6.7 nM
koff [1]: 0.00026 s⁻¹
kon [1]: 38000 M⁻¹ s⁻¹
Kd [2]: 34 nM
koff [2]: 0.00049 s⁻¹
kon [2]: 14000 M⁻¹ s⁻¹

B9: huAb15v7 (antibody, V domains shown)
VH: EVQLVESGGGVVQPGRSLRLSCAASGFTFSDYTMAWVRQAPGKGLEWVATIIYDARGTYYRDAVKGRFTISRDNSKSTLYLQMNSLRAEDTAVYYCARQSDDTYYYWGYFDYWGQGTMVTVSS
VL: DIVMTQSPDSLAVSLGERATINCKSSQSLLFSGNQKNYLAWYQQKPGQSPKLLIYWASTRQSGVPDRFSGSGSGTDFTLTIRSLQAEDVAIYYCQQYYGSPYTFGQGTKLEIK
notes: as for B3
Kd [1]: 5.9 nM
koff [1]: 0.00021 s⁻¹
kon [1]: 35000 M⁻¹ s⁻¹
Kd [2]: 30 nM
koff [2]: 0.00043 s⁻¹
kon [2]: 14000 M⁻¹ s⁻¹

B10: huAb108 (antibody, human IgG1, kappa, L234A L235A, V domains shown)
VH: EVQLVQSGAEVKKPGASVKVSCKASGFTFSDYTMAWVRQAPGQGLEWVATIIYSGRGTYYRDAVKGRFTITRDNSTSTLYLELSSLRSEDTAVYYCARQSDDTYYYWGYFDYWGQGTMVTVSS
VL: DIVMTQTPLSLPVTPGEPASINCKSSQSLLFSGNQKNYLAWYLQKPGQSPQLLIYWASTRQSGVPDRFSGSGSGTDFTLKISRVEAEDVGIYYCQQYYDVPYTFGQGTKLEIKR
notes: Framework re-engineered humanized clone (parent huAb15v2); also called CL-huAb108
Kd [3]: 4.6 nM
koff [3]: 0.00014 s⁻¹
kon [3]: 29000 M⁻¹ s⁻¹
Kd [4]: 0.55 nM
koff [4]: 4.1e-05 s⁻¹
kon [4]: 75000 M⁻¹ s⁻¹

B11: huAb110 (antibody, human IgG1, kappa, L234A L235A, V domains shown)
VH: EVQLVQSGAEVKKPGASVKVSCKASGFTFSDYTMAWVRQAPGQGLEWVATIIYDARGTYYRDAVKGRFTITRDNSTSTLYLELSSLRSEDTAVYYCARQSDDTYYYWGYFDYWGQGTMVTVSS
VL: DIVMTQTPLSLPVTPGEPASINCKSSQSLLFSGNQKNYLAWYLQKPGQSPQLLIYWASTRQSGVPDRFSGSGSGTDFTLKISRVEAEDVGIYYCQQYYSSPYTFGQGTKLEIKR
notes: Framework re-engineered humanized clone (parent huAb15v6); also called CL-huAb110
Kd [3]: 23 nM
koff [3]: 0.00051 s⁻¹
kon [3]: 23000 M⁻¹ s⁻¹
Kd [4]: 2.3 nM
koff [4]: 0.0003 s⁻¹
kon [4]: 130000 M⁻¹ s⁻¹
